For one substance, response results are on record in PMC6234289.

This test has as its target ribosome (40S ribosomal subunit) of RACK1-downregulated HeLa cells. The experiment in a line: in vitro ribosome interaction assay (iRIA). The conditions noted are these: parent: est. 1.1; read off a plot.

As to “MBP-RACK1, wild type (from UniProt P63244) R36D; K38E”, the response was 0.47 Abs450.
